Source: patent US20090094709

System: AMPK, active (upstate) protein

## PP2Cε protein (in vitro assay)
  dephosphorylation of AMPK: the dephosphorylation of AMPK with PP2Cε occurs concentration-dependently
